Measurements published in patent US20140186348A1 (NOVELMED THERAPEUTICS, published 2014).
Numbering of substitutions follows the chain as printed.

Experiments:
human properdin [1] = target: T1, human properdin (human, UniProt P27918 28-469); assay: properdin ELISA (FIG. 27)
T1 construct: also called antigen properdin

human properdin [2] = target: T1, human properdin; assay: cell-based or functional assay
human properdin [3] = target: T1, human properdin; assay: properdin ELISA
human properdin [4] = target: T1, human properdin; assay: competition ELISA: varied antibody with 50 nM properdin on C3b-coated wells

T1 sequence (P27918 28-469 limits assumed): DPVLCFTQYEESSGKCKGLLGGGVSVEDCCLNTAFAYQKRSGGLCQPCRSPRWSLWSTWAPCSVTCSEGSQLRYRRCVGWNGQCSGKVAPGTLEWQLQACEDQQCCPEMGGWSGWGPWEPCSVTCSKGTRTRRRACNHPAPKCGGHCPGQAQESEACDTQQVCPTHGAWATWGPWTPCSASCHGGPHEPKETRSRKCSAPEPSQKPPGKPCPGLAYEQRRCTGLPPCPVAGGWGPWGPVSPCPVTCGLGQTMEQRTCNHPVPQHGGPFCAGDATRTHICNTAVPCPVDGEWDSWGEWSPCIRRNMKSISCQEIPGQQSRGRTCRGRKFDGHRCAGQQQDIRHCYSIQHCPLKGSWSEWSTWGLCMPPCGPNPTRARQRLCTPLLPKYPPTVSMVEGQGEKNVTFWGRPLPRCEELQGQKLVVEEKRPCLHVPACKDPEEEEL

B1: BAP010hum02 (humanized anti-properdin monoclonal antibody) (antibody, V domains shown)
VH: QVQLQESGPGLVKPSQTLSLTCTVSGYIFTNYPIHWVRQAPGKGLEWVSFIDPGGGYDEPDERFRDRVTISVDTSKNQFSLKLSSVTAADTAVYYCARRGGGYYLDYWGQG
VL: EIVLTQSPATLSLSPGERATLSCRASQDISFFLNWFQQRPGQSPRRLIYYTSRYHSGIPPRFSGSGYGTDFTLTINNIESEDAAYYFCQHGNTLPWTFGQG
notes: Labelled _HC and _LC; Expressed as human IgG from BioAtla's mammalian vector; also called BAP010hum02_HC
binding result (human properdin [1]): binds

B2: NM9401-IgG (murine anti-properdin monoclonal antibody, IgG1) (antibody, V domains shown)
VH: QVQLQQSAPELARPGASVKMSCTASGYIFTNYPIHWVKQRPGQGLEWIGFIDPGGGYDEPDERFRDRATLTADKSSSTAYMQLSSLTSEDSAIYYCARRGGGYYLDYWGQGTTLTVSS
VL: DIQMTQTTSSLSASLGDRVTISCRASQDISFFLNWYQQKPDGTVKLLIYYTSRYHSGVPSRFSGSGSGTDFSLTINNLEQEDFATYFCQHGNTLPWTFGGGTKLEIKR
erythrocyte lysis assay using rabbit erythrocytes, IC50 (human properdin [2]): 20 to 30 nM

B3: BAP010-1 (chimeric anti-properdin IgG1) (antibody, V domains shown)
VH: B2 VH
VL: DIQMTQTTSSLSASLGDRVTISCRASQDISFFLNWYQQKPDGTVKLLIYYTSRYHSGVPSRFSGSGSGTDFSLTINNLEQEDFATYFCQHGNTLPWTFGGGTKLEIK
notes: Murine variable domains (heavy chain clone mH6-3g, light chain clone mK10) fused in frame to a human IgG1 constant region and a human kappa constant region; also called chimeric anti-properdin monoclonal antibody; recombinant antibody BAP010-1
erythrocyte lysis assay using rabbit erythrocytes, IC50 (human properdin [2]): 20 to 30 nM
Kd (human properdin [3]): ~0.054 nM

B4: NM9401-Fab (Fab, V domains shown)
VH: B2 VH
VL: B2 VL
notes: Fab fragment of the murine NM9401 IgG
concentration inhibiting properdin binding to C3b (quantity not named, IC50 implied) (human properdin [4]): 72 nM
molar ratio of antibody to properdin (human properdin [4]): 1.2

B5: NM9401-F(ab′)2 (other)
VH: QVQLQQSAPELARPGASVKMSCTASGYIFTNYPIHWVKQRPGQGLEWIGFIDPGGGYDEPDERFRDRATLTADKSSSTAYMQLSSLTSEDSAIYYCARRGGGYYLDYWGQGTTLTVSSAKTT
VL: DIQMTQTTSSLSASLGDRVTISCRASQDISFFLNWYQQKPDGTVKLLIYYTSRYHSGVPSRFSGSGSGTDFSLTINNLEQEDFATYFCQHGNTLPWTFGGGTKLEIKRADAAPTVSIFPPSSEQLTSGGASVVCFLNN
notes: F(ab′)2 fragment of the murine NM9401 IgG
concentration inhibiting properdin binding to C3b (quantity not named, IC50 implied) (human properdin [4]): 29 nM
molar ratio of antibody to properdin (human properdin [4]): 0.5

B6: BAP010hum03 (humanized anti-properdin monoclonal antibody) (antibody, V domains shown)
VH: EVQLVQSGAEVKKPGESLRISCKGSGYIFTNYPIHWIRQSPSRGLEWLGFIDPGGGYDEPDERFRDRVTISADKSISTAYLQWSSLKASDTAMYYCARRGGGYYLDYWGQG
VL: DIQMTQSPSSLSASVGDRVTITCRASQDISFFLNWYQQKPGKAPKLLIYYTSRYHSGVPSRFSGSGSGTEFTLTISSLQSEDFAVYYCQHGNTLPWTFGQG
notes: Labelled _HC and _LC; Expressed as human IgG; also called BAP010hum03_HC
binding result (human properdin [1]): binds

B7: BAP010hum10 (humanized anti-properdin monoclonal antibody) (antibody, V domains shown)
VH: QVQLQESGPGLVKPSQTLSLTCTVSGYIFTNYPIHWVRQATGQGLEWMGFIDPGGGYDEPDERFRDRVTITADKSTSTAYMELSSLRSEDTAVYYCARRGGGYYLDYWGQG
VL: B6 VL with V58I, S60P, S67Y, L73F, Q79E, S80A, F83A, V85T
notes: Labelled _HC and _LC; Expressed as human IgG; also called BAP010hum10_HC
binding result (human properdin [1]): binds
